Source: paper PMC12024163, “Competitive Ligand-Induced Recruitment of Coactivators to Specific PPARα/δ/γ Ligand-Binding Domains Revealed by Dual-Emission FRET and X-Ray Diffraction of Cocrystals” (Antioxidants, 2025)
No end group written: not given here. *: point of attachment. Biotin = O=C1N[C@H]2[C@H](CS[C@H]2CCCCC(=O)*)N1

T1: Human PPARα-LBD (amino acids 200–468), amino-terminal His-tagged (human, UniProt Q07869 200-468)
T1 construct: Form used in the FRET assays; detected through the His tag with a Tb cryptate anti-6×His antibody; Routine preparations hold intrinsic fatty acids; also called hPPARα-LBD; NR1C1; source: Rosetta (DE3) pLysS cells, pET28a, purified (TALON, HiTrap Q, Superdex 75); not shown: His tag, N-terminal, kept
T1 sequence (looked up): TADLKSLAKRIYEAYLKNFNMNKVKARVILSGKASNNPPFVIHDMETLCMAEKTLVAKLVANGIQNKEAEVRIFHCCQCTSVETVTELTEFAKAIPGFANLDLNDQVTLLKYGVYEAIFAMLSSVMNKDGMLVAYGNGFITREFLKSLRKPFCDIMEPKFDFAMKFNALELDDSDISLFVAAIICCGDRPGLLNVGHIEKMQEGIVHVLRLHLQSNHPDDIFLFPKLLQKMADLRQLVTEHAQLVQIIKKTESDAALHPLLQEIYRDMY

T2: Human PPARδ-LBD (amino acids 170–441), amino-terminal His-tagged (human, UniProt Q03181 170-441)
T2 construct: Form used in the FRET assays; also called hPPARδ-LBD; PPARβ; source: Rosetta (DE3) pLysS cells, pET28a, purified (TALON, HiTrap Q, Superdex 75); not shown: His tag, N-terminal, kept
T2 sequence (looked up): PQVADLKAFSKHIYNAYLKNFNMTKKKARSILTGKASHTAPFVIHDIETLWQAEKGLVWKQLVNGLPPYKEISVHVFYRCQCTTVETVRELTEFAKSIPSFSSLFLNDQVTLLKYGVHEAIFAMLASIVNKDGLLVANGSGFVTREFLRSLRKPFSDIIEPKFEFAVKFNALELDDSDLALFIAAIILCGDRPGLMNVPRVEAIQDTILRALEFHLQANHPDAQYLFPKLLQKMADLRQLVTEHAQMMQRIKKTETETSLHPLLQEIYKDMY

T3: Human PPARγ-LBD (amino acids 203–477 in isoform 1), amino-terminal His-tagged (human, UniProt P37231-2 203-477)
T3 construct: numbers count on: isoform 1; Form used in the FRET assays; mainly prepared as apo (unliganded) form; also called hPPARγ-LBD; NR1C3; source: Rosetta (DE3) pLysS cells, pET28a, purified (TALON, HiTrap Q, Superdex 75); not shown: His tag, N-terminal, kept
T3 sequence (looked up): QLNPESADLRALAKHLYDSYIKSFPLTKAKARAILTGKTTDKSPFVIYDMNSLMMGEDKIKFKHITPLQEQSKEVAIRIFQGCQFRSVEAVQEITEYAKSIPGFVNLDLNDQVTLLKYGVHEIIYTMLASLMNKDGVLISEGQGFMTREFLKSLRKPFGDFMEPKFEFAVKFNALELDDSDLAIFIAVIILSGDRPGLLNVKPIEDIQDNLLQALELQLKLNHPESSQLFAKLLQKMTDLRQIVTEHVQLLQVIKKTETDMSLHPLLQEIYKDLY


Key:
Details in all cases: both partners purified
[1] = target: T1, Human PPARα-LBD (amino acids 200–468), …; experiment: FRET or BRET; single-emission TR-FRET as a1, with the agonist titrated (pemafibrate for PPARα-LBD, seladelpar for PPARδ-LBD, pioglitazone for PPARγ-LBD); signal ratios normalised to 1% DMSO
[2] = target: T2, Human PPARδ-LBD (amino acids 170–441), …; experiment: as above
[3] = target: T3, Human PPARγ-LBD (amino acids 203–477 in …); experiment: as above
[4] = target: T1, Human PPARα-LBD (amino acids 200–468), …; experiment: FRET or BRET; dual-emission TR-FRET: a FITC-coactivator peptide and a ULight-coactivator peptide together in one well with the His-tagged LBD and Tb anti-6×His antibody; agonist titrated (pemafibrate, seladelpar or pioglitazone); buffer A, room temperature
[5] = target: T2, Human PPARδ-LBD (amino acids 170–441), …; experiment: as above
[6] = target: T3, Human PPARγ-LBD (amino acids 203–477 in …); experiment: as above
[7] = target: T2, Human PPARδ-LBD (amino acids 170–441), …; experiment: FRET or BRET; dual-emission TR-FRET: ULight-corepressor peptide and FITC-coactivator peptide together in one well with the His-tagged LBD and Tb anti-6×His antibody; agonist titrated from vehicle (pemafibrate, seladelpar or pioglitazone); buffer A, room temperature
[8] = target: T3, Human PPARγ-LBD (amino acids 203–477 in …); experiment: as above
[9] = target: T1, Human PPARα-LBD (amino acids 200–468), …; experiment: FRET or BRET; single-emission TR-FRET (LANCE Ultra); His-tagged LBD (9.5 µL of 400 nM) with Tb cryptate anti-6×His antibody, biotin peptide (5 µL of 1 µM) with ULight-Streptavidin or FITC-Ahx peptide; buffer A (20 mM HEPES pH 7.4, 150 mM NaCl, 1 mM EDTA, 1 mM DTT, 0.005% Tween 20, 0.1% fatty acid-free BSA); room temperature, 2 h; without agonist (vehicle 1% DMSO)
[10] = target: T3, Human PPARγ-LBD (amino acids 203–477 in …); experiment: as above

Row | Binder | EC50 of pemafibrate (the ligand is titrated) for recruitment of the peptide [1] | EC50 of seladelpar (the ligand is titrated) for recruitment of the peptide [2] | EC50 of pioglitazone (the ligand is titrated) for recruitment of the peptide [3] | maximal recruitment in dual-FRET with pemafibrate, that of FITC-CBP in the same well taken as 100 [4] | maximal recruitment in dual-FRET with pemafibrate, that of FITC-TRAP in the same well taken as 100 [4] | maximal recruitment in dual-FRET with seladelpar, that of FITC-CBP in the same well taken as 100 [5] | maximal recruitment in dual-FRET with seladelpar, that of FITC-TRAP in the same well taken as 100 [5] | maximal recruitment in dual-FRET with pioglitazone, that of FITC-CBP in the same well taken as 100 [6] | maximal recruitment in dual-FRET with pioglitazone, that of FITC-TRAP in the same well taken as 100 [6] | binding result [7] | binding result [8] | binding result [9] | binding result [10]
1 | Biotin-PVSSMAGNTKNHPMLMNLLKDNPAQ (thyroid hormone receptor-associated protein 220 (TRAP220), human, AAs 631–655, LXXLL motif LMNLL; also called ULight-TRAP220; ULight-TRAP; source: synthetic peptide (GenScript)) [TRAP220 coactivator peptide, biotin-labeled (AAs 631–655)] | 130 nM | 54.8 nM | 1910 nM | 63.3 FITC-CBP = 100 | 75.8 FITC-TRAP = 100 | 402 FITC-CBP = 100 | 108 FITC-TRAP = 100 | 107 FITC-CBP = 100 | 65.8 FITC-TRAP = 100 | – | – | – | –
2 | Biotin-ADPASNLGLEDIIRKALMGSF (NCoR1 (nuclear receptor corepressor 1), human, AAs 2255–2275, LXXXIXXXL motif LEDIIRKAL; also called ULight-NCoR1; N-CoR ID2; source: synthetic peptide (GenScript)) [NCoR1 corepressor peptide, biotin-labeled (AAs 2255–2275)] | – | – | – | – | – | – | – | – | – | binds | binds | binds | –
3 | Biotin-CPSSHSSLTERHKILHRLLQEGSPS (also called ULight-SRC1; SRC-1 M2; source: synthetic peptide (GenScript)) [SRC1 coactivator peptide, biotin-labeled (AAs 676–700)] | 87.8 nM | 53.5 nM | 2110 nM | 115 FITC-CBP = 100 | 77 FITC-TRAP = 100 | 156 FITC-CBP = 100 | 55.5 FITC-TRAP = 100 | 52 FITC-CBP = 100 | 57.1 FITC-TRAP = 100 | – | – | – | –
4 | Biotin-EAEEPSLLKKLLLAPANTQ (also called ULight-PGC1α; source: synthetic peptide (GenScript)) [PGC1α coactivator peptide, biotin-labeled (AAs 137–155)] | 82 nM | 48.1 nM | – | 108 FITC-CBP = 100 | 150 FITC-TRAP = 100 | 359 FITC-CBP = 100 | 313 FITC-TRAP = 100 | – | – | – | – | – | –
5 | Biotin-SGNLVPDAASKHKQLSELLRGGSGS (also called ULight-CBP; source: synthetic peptide (GenScript)) [CBP coactivator peptide, biotin-labeled (AAs 56–80)] | 60.9 nM | 33.2 nM | 637 nM | 431 FITC-CBP = 100 | 508 FITC-TRAP = 100 | 508 FITC-CBP = 100 | 372 FITC-TRAP = 100 | 237 FITC-CBP = 100 | 295 FITC-TRAP = 100 | – | – | – | –
6 | Biotin-EHASTNMGLEAIIRKALMGKY (NCoR2 (nuclear receptor corepressor 2, SMRT), human, AAs 2321–2341, LXXXIXXXL motif LEAIIRKAL; also called ULight-NCoR2; SMRT; source: synthetic peptide (GenScript)) [NCoR2 corepressor peptide, biotin-labeled (AAs 2321–2341)] | – | – | – | – | – | – | – | – | – | binds | – | binds | binds
